The values that follow come from patent publication US20180079804A1.

Assay [1] deals with T1, Tau(pS422) fragment SEQ ID NO: 03 (human).
T1 sequence (peptide, phosphoserine at position 7 (position 422 of SEQ ID NO, 01)): SIDMVDXPQLATLAD
Put plainly: ELISA.

For assay [2] the target is unchanged. Put plainly: SPR capture assay (Example 10), 25 C.

B1: VH00/VL00 (antibody, V domains shown)
VH: QSVEESGGRLVTPGTPLTLTCTVSGFSLSSNAINWVRQAPGKGLEWIGYIAVSGNTYYASWAKGRFTISKASTTVDLKMTSPTAEDTGTYFCGKSNIWGPGTLVTVSL
VL: AQVLTQTTSPVSAAVGSTVTISCQSSQSVRTNKLAWFQQKPGQPPKRLIYSASTLDFGVPSRFSASGSGTQFTLTISDVQCDDAATYYCLGYFDCSIADCVAFGGGTEVVVK
Take B1: in assay [1], the EC50 is 0.04 µg/mL. Also, in assay [2], the equilibrium dissociation constant (Kd) is 1.96 nM, the dissociation rate constant (koff) is 0.000265 s⁻¹ and the association rate constant (kon) was determined as 135000 M⁻¹ s⁻¹.

B2: VH76A6/VL145B12 (antibody, V domains shown)
VH: EVQVLESGGGLVQPGGSLRLSCAVSGFSLSNSAINWVRQAPGKGLEWVGYIAVSGNTYYASWAKGRFTISRDNSKNTVYLQMNSLRAEDTAVYYCGKSNIWGQGTLVTVSS
VL: AQVMTQSPSSLSASVGDRVTITCRSSQSVRSNKLAWFQQKPGQPPKRLIYAASNLDFGVPSRFSGSGSGTEFTLTISSLQPEDFATYYCLGYFDSSADIVAFGGGTKVEIK
B2 returned an EC50 in assay [1] of 0.0403 µg/mL. Moreover, in assay [2], the Kd stood at 2.61 nM, the koff amounted to 0.000628 s⁻¹ and the kon came to 240000 M⁻¹ s⁻¹.
